Assay results: patent publication US20210246166A1 (Bayer, published 2021)
Numbered stars: 1 amine (or outer) side, 2 acyl side, 3 side chain; on linkers, the order of the positions; unused ones are H or OH. Bridge positions count the residues as written; N and C are the ends. Square brackets hold non-standard residues; d marks the D form. Ends that are not written are not given here. Phe(2,3-F2) = (2S)-3-(2,3-difluorophenyl)-2-aminopropanoic acid, O=C([C@H](Cc1cccc(F)c1F)N[*:1])[*:2]; Pro(4-spirocPr) = O=C(O)[C@@H]1CC2(CC2)CN1; Oic = O=C(O)[C@@H]1C[C@@H]2CCCC[C@@H]2N1; tBuAla = CC(C)(C)C[C@H](N)C(=O)O; PEG5 = NCCOCCOCCOCCOCCOCCC(=O)O; (3-Me)H = L-3-methylhistidine; Pen = CC(C)(S)[C@H](N)C(=O)O; Tranexamic = tranexamic acid; NMeA = CN[C@@H](C)C(=O)O; Sar = CNCC(=O)O

T1: recombinant human MASP1 active protease (amino acids 297-699, C-terminal His Tag) (human, UniProt P48740 297-699)
T1 sequence: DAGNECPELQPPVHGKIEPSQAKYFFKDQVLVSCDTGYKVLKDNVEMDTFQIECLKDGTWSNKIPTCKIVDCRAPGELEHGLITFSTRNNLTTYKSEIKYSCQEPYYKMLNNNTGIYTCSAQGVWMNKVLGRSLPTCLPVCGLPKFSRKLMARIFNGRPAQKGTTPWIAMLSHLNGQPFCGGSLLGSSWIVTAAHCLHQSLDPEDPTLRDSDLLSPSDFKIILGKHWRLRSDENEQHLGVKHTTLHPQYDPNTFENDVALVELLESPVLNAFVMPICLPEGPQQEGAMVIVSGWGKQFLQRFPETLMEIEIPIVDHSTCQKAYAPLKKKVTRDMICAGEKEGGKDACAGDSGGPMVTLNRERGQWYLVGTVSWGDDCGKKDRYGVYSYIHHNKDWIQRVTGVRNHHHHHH

B1: Example 439: ((N-Me)G)-IC+SRS-((tBu)A)-P-((6S)-5-Azaspiro[2.4]heptane-6-carboxylic acid)-I-(Pen)+IP-NH2 (peptide)
peptide: [Sar]ICSRS[tBuAla]P[Pro(4-spirocPr)]I[Pen]IP-NH2
modifications: disulfide 3-11; N-terminus assumed
SMILES: CC[C@H](C)[C@H](NC(=O)CNC)C(=O)N[C@H]1CSSC(C)(C)[C@@H](C(=O)N[C@H](C(=O)N2CCC[C@H]2C(N)=O)[C@@H](C)CC)NC(=O)[C@H]([C@@H](C)CC)NC(=O)[C@@H]2CC3(CC3)CN2C(=O)[C@@H]2CCCN2C(=O)[C@H](CC(C)(C)C)NC(=O)[C@H](CO)NC(=O)[C@H](CCCNC(=N)N)NC(=O)[C@H](CO)NC1=O
B2: Example 441: ((N-Me)G)-IC+SRS-((2S)-3-(2,3-difluorophenyl)-2-aminopropanoic acid)-P-(Oic)-I-(Pen)+IP-NH2 (peptide)
peptide: [Sar]ICSRS[Phe(2,3-F2)]P[Oic]I[Pen]IP-NH2
modifications: disulfide 3-11; N-terminus assumed
SMILES: CC[C@H](C)[C@H](NC(=O)CNC)C(=O)N[C@H]1CSSC(C)(C)[C@@H](C(=O)N[C@H](C(=O)N2CCC[C@H]2C(N)=O)[C@@H](C)CC)NC(=O)[C@H]([C@@H](C)CC)NC(=O)[C@@H]2C[C@@H]3CCCC[C@@H]3N2C(=O)[C@@H]2CCCN2C(=O)[C@H](Cc2cccc(F)c2F)NC(=O)[C@H](CO)NC(=O)[C@H](CCCNC(=N)N)NC(=O)[C@H](CO)NC1=O
B3: Example 440: ((N-Me)G)-IC+SRS-((2S)-3-(2,3-difluorophenyl)-2-aminopropanoic acid)-PPI-(Pen)+IP-NH2 (peptide)
peptide: [Sar]ICSRS[Phe(2,3-F2)]PPI[Pen]IP-NH2
modifications: disulfide 3-11; N-terminus assumed
SMILES: CC[C@H](C)[C@H](NC(=O)CNC)C(=O)N[C@H]1CSSC(C)(C)[C@@H](C(=O)N[C@H](C(=O)N2CCC[C@H]2C(N)=O)[C@@H](C)CC)NC(=O)[C@H]([C@@H](C)CC)NC(=O)[C@@H]2CCCN2C(=O)[C@@H]2CCCN2C(=O)[C@H](Cc2cccc(F)c2F)NC(=O)[C@H](CO)NC(=O)[C@H](CCCNC(=N)N)NC(=O)[C@H](CO)NC1=O

Experiments:
[1] = target: T1, recombinant human MASP1 active protease …; experiment: cell-based or functional assay
[2] = target: recombinant human MASP2 active protease (amino acids 297-686, C-terminal His Tag) (human, UniProt O00187 297-686); experiment: cell-based or functional assay
recombinant human MASP2 active protease (amino acids 297-686, C-terminal His Tag), sequence (O00187 other isoform, or with tags, fused parts or gaps limits assumed): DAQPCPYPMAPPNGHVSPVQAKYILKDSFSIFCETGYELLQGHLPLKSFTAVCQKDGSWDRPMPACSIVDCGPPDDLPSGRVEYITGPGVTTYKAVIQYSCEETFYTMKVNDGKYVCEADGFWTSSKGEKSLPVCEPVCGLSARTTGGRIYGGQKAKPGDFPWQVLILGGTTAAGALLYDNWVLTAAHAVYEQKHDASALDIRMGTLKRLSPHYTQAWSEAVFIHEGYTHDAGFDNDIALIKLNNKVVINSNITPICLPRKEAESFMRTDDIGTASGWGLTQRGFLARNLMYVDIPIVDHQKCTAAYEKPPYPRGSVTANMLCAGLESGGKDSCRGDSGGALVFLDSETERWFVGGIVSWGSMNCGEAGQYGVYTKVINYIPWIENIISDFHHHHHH

Binder	human MASP1 IC50 [1]	human MASP2 IC50 [2]
B1	3.2 nM	15 nM
[Sar]ICSRSLP[Oic]I[Pen]IPP[(2S)‑3‑(Triazol-1-yl)‑2‑(amino)propanoic acid]-NH2 (disulfide 3-11)	2.3 nM	44 nM
[(3-Me)H]ICSRSLP[Oic]I[Pen]IP-NH2 (disulfide 3-11) [Example 444: ((3-Me)H)-IC+SRSLP-(Oic)-I-(Pen)+IP-NH2]	2.8 nM	61 nM
[NMeA]ICSRS[tBuAla]P[(3R,6R)‑1,1‑Difluoro‑5‑azaspiro(2.4)heptane‑6‑carboxylic acid (enantiomer 1)]I[Pen]IP-NH2 (disulfide 3-11)	0.78 nM	74 nM
[Sar]ICSRSLP[Oic]I[Pen]IP[(2S)‑3‑(Triazol-1-yl)‑2‑(amino)propanoic acid]-NH2 (disulfide 3-11) [Example 437: ((N-Me)G)-IC+SRSLP-(Oic)-I-(Pen)+IP-((2S)-3-(Triazol-1-yl)-2-(amino)propanoic acid)-NH2]	2.2 nM	76 nM
[Tranexamic]ICSRS[tBuAla]PPI[Pen]IP[PEG5]-NH2 (disulfide 3-11) [Example 435: (Tranexamic)-IC+SRS-((tBu)A)-PPI-(Pen)+IP-(PEG4(19 atoms))-NH2]	9.2 nM	17 nM
B2	65 nM	220 nM
B3	18 nM	26 nM
[Sar]ICSRSLP[Oic]I[Pen]IP[5‑Azaspiro(2.4)heptane‑1‑carboxylic acid]-OH (disulfide 3-11) [Example 438: ((N-Me)G)-IC+SRSLP-(Oic)-I-(Pen)+IP-((5-Azaspiro[2.4]heptane-1-carboxylic acid)-OH]	2.9 nM	83 nM
